What was measured:
β-lactoglobulin = target: T1, β-lactoglobulin (Bos taurus, UniProt P02754); assay: Wax-lactoglobulin binding by intrinsic tryptophan fluorescence intensity and anisotropy
T1 sequence (P02754 17-178): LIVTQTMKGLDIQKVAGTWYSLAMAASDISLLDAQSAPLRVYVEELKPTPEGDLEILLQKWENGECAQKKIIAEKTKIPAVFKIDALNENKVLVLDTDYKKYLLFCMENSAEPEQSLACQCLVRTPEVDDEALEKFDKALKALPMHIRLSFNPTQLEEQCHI
Source text: Changes in protein concentration alone are unlikely to affect the rate of evaporation of tears. […] (See Pandit J. C., Nagyova B., Bron A. J., et al, Physical properties of stimulated and unstimulated tears. Exp Eye Res. 1999; 68:247-253.) In this embodiment of the present invention, wax interacted with lactoglobulin. Wax-lactoglobulin binding was quantified by measuring changes in the intrinsic fluorescence intensity of tryptophan. Tryptophan fluorescence is sensitive to local changes in electrostatic fields. Therefore, variations in the local environment/polarity of tryptophan leads to changes in its fluorescence properties as described by Vivian and Callis. Vivian J. T., Callis P. R., Mechanisms of tryptophan fluorescence shifts in proteins, Biophys. J. 2001; 80:2093-2109.) Substrate binding and protein structural changes are commonly measured by observing changes in tryptophan fluorescence intensity, wavelength maximum, band shape, anisotropy, fluorescence lifetimes, and energy transfer.
A wax emulsion that is stable for at least 4 weeks was prepared as described previously by the inventors. […] A quantified amount of wax (0.156 to 1.25 μL/mL) was mixed with 1 mg/mL lactoglobulin in phosphate buffered saline and equilibrated for 12 hours at 34° C. under an atmosphere of argon. […] Emission spectra were measured from 300 to 400 nm with an excitation wavelength of 270 nm. […]

[1] = Evaporation rates measured in vitro (gravimetric); assay type: physicochemical; conditions: for Influence on the rate of evaporation: concentrations of 50 to 100 mg/mL, at 25 or 34° C.
Description: Samples (0.750 mL) for evaporation rate measurements were placed into a plastic container 0.8 cm deep and 1.500 cm inside diameter. Temperature and relative humidity were recorded at the start and end of each experiment. Samples were weighed every minute for 10 minutes using a Mettler-Toledo AT261 analytical balance (Columbus, Ohio). The balance was calibrated and certified by a Mettler technician prior to use. The weights of as many as 7 samples were measured sequentially, i.e., after measuring the weights of sample 1 for ten minutes, the weights of sample 2 were measured for ten minutes, followed by the next sample. The weights of four 10 minute weighing sequences were plotted versus time and the rate of evaporation was calculated from the slope of the data in the plots that were fitted using least squares linear regression analysis. The rate of evaporation at 34° C. was measured using four, 3-minute weighing sequences instead of ten.
The rate of evaporation with 20 standard cubic feet per minute (SCFM) of dry air flowing over the sample at 24° C. was measured. Air was completely dried using a Keaser desiccant dry, model KLDW-10S (Columbus, Ohio) attached to a Purimetrics Compressor, model 750-2 (Edina, Minn.) and a 80 gallon air receiver tank. Complete removal of water vapor from the air was confirmed using an infrared spectrometer. The sample was placed under a flow of dry air for 1 minute and removed from the dry air for two minutes and weighed in a Mettler-Toledo analytical balance. This cycle was repeated ten times. The rate of evaporation in dry air was calculated from the total rate of evaporation minus the contribution of the evaporation in the room air. Evaporation rate was expressed as μm/min, the rate of thickness lost at the surface per minute. Changes in the thickness of the tear film (˜5 μm) due to evaporation can be estimated readily by expressing the evaporation rate in μm/min.

[2] = 50 mg/mL, 24.8° C., relative humidity 40.6%
[3] = 100 mg/mL, 24.8° C., relative humidity 40.6%

Row | Tryptophan anisotropy of lactoglobulin (β-lactoglobulin; with the addition of wax, n=6, 0.138±0.009 with no wax, p=0.04, SEM) | Molecule | Fluorescence intensity of the tryptophan residues in lactoglobulin (β-lactoglobulin; as little as 20 nmoles (~0.1 μg) wax added to 1 mg β-lactoglobulin in 1 ml phosphate buffered saline) | Rate of Evaporation [1, 2] | Rate of Evaporation [1, 3] | Influence on the rate of evaporation [1] | Rate of Evaporation ([1]; 100 mg/mL, 34° C.)
1 | 0.115±0.004 | CCCCCCCC/C=C\CCCCCCCC(=O)OCCCCCCCCCCCCCCCC [palmityloleate wax, palmityloleate] | caused a decrease in the fluorescence intensity | – | – | – | –
2 | – | Lysozyme | – | 3.0 μm/min | 3.0 μm/min | did not significantly influence the rate of evaporation | –
3 | – | Mucin | – | 2.9 μm/min | 3.0 μm/min | did not significantly influence the rate of evaporation | –
4 | – | β-Lactoglobulin: model tear protein, used as a model for lipocalin | – | 3.08 μm/min | 3.12 μm/min | did not significantly influence the rate of evaporation | 9.1 μm/min
